In patent publication US20240294595A1 (ARIZONA BOARD OF REGENTS ON BEHALF OF THE UNIVERSITY OF …, published 2024):
Where no end group is shown, it is not given here. [ ]: non-standard residue; d: D form. The star is where a group is joined. βGlc = OC[C@H]1O[C@@H](*)[C@H](O)[C@@H](O)[C@@H]1O; Nle = CCCC[C@H](N)C(=O)O

How the values were obtained:
[1] = molecular target: T1, VPAC1; experiment: cell-based or functional assay
T1 sequence (P32241 whole entry, species assumed, looked up): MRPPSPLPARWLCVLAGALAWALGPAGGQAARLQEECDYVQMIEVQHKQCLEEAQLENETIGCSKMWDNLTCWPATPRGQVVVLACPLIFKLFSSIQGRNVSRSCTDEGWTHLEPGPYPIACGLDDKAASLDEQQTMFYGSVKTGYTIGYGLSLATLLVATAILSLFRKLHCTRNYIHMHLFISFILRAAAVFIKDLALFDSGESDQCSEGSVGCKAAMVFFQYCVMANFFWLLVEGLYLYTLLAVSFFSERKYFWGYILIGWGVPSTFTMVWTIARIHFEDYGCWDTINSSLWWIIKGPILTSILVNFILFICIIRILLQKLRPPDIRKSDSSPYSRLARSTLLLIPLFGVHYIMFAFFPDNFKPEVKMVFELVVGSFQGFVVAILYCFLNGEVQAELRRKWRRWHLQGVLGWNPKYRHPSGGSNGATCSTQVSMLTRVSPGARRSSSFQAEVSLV

[2] = molecular target: T2, VPAC2; experiment: cell-based or functional assay
T2 sequence (P41587 whole entry, species assumed, looked up): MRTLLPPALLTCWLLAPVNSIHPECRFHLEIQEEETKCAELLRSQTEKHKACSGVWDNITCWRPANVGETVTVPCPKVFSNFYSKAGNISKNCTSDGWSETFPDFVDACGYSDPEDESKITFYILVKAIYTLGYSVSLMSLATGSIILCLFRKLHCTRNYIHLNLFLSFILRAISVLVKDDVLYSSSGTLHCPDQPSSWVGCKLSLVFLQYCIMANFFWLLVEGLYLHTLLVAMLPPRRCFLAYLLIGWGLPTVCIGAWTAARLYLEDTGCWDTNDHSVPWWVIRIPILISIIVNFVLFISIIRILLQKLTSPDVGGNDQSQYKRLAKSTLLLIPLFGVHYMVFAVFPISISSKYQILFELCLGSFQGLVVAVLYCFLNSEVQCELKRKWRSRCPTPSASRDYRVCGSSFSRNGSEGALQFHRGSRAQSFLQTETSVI

Binder | EC50 (agonist) [1] | EMax (agonist) [1] | EC50 (agonist) [2] | EMax (agonist) [2]
HSDGIFTDSYSRYRKQLAVKKYLAAVLS(melibiose)-NH2 [HSDGIFTDSYSRYRKQLAVKKYLAAVL-Ser(Mel)] | 0.55 nM | 102% | 9.4 nM | 86%
HSDGIFTDSYSRYRKQXAVKKYLAAVLS (D-Serine at 2 (s); L-Nor-Leucine at 17 (Ñ, written X in letters); Ser 28 = L-Ser(β-D-Glc)) [HsDGIFTDSYSRYRKQÑAVKKYLAAVL-Ser(Glc)] | 1.3 nM | 90% | 241 nM | 104%
H[dS]DGIFTDSYSRYRKQ[Nle]AVKKYLAALS(βGlc)L-NH2 (ends and bridges not checked) [HsDGIFTDSYSRYRKQÑAVKKYLAAL-Ser(Glc)-L] | 5.9 nM | 93% | > 2500 nM | -95%
HSDGIFTDSYSRYRKQXAVKKYLAAVS (D-Serine at 2 (s); L-Nor-Leucine at 17 (Ñ, written X in letters); Ser 27 = L-Ser(β-D-Glc)) [HsDGIFTDSYSRYRKQÑAVKKYLAAV-Ser(Glc)] | 4.8 nM | 90% | 654 nM | 107%
HSDGIFADSYSRYRKQXAVKKYLAAVS (D-Serine at 2 (s); L-Nor-Leucine at 17 (Ñ, written X in letters); Ser 27 = L-Ser(β-D-Glc)) [HsDGIFADSYSRYRKQÑAVKKYLAAV-Ser(Glc)] | 1370 nM | 85% | – | –
H[dS]DGIFADSYSRYRKQ[Nle]AVKKYLAAVS(βGlc)L-NH2 (ends and bridges not checked) [HsDGIFADSYSRYRKQÑAVKKYLAAV-Ser(Glc)-L] | 1620 nM | 78% | – | –
HSDGIFTDSYSRYRKQMAVKKYLAAVL (ends and bridges not checked) [PACAP1-27] | – | 100% | – | –
HSDGIFADSYSRYRKQXAVKKYLAAVLS (D-Serine at 2 (s); L-Nor-Leucine at 17 (Ñ, written X in letters); Ser 28 = L-Ser(β-D-Glc)) [HsDGIFADSYSRYRKQÑAVKKYLAAVL-Ser(Glc)] | 78.8 nM | 93% | > 2500 nM | -42%
